From the supplement of paper PMC7125110
± gives the standard error. For part of these data: This sample holds only a part of the variants without activity.

B1: glmS ribozyme (parent)
chain: AUAAAAGCGCCAGAACUACAGAAAUGUAGUUGACGAGGAGGAGGUUUAUCGAAUUUUCGGCGGAUGCCUCCAAA

How the values were obtained:
Conditions in all cases: with glucosamine-6-phosphate
glucosamine-6-phosphate [1] = variants of: B1; test: kcat; higher = faster cleavage; RNA array
How it was run: (§1)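 The measurements used barcoded ribozyme variants on sequenced MiSeq chips, transcribed in situ by E. coli RNA polymerase and tracked at 37 °C with a hybridised Cy3 probe. Glucosamine-6-phosphate, 40 μM to 10 mM in HEPES/KCl/Mg(OAc)2 buffer, was flowed in while tiles were imaged over ~14 h. Baseline-normalised signals, also normalised to non-cleaving reference variants, gave per-tile medians that were fit to one- or two-exponential decays for kobs. kcat and KM resulted from weighted Michaelis–Menten fits across concentrations.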

glucosamine-6-phosphate [2] = variants of: B1; test: KM; higher = weaker cofactor use; RNA array
How it was run: as §1

glucosamine-6-phosphate [3] = variants of: B1; test: self-cleavage kobs at 40 uM GlcN6P; higher = faster cleavage; RNA array
How it was run: as §1

glucosamine-6-phosphate [4] = variants of: B1; test: self-cleavage kobs at 160 uM GlcN6P; higher = faster cleavage; RNA array
How it was run: as §1

glucosamine-6-phosphate [5] = variants of: B1; test: self-cleavage kobs at 640 uM GlcN6P; higher = faster cleavage; RNA array
How it was run: as §1

glucosamine-6-phosphate [6] = variants of: B1; test: self-cleavage kobs at 2500 uM GlcN6P; higher = faster cleavage; RNA array
How it was run: as §1

glucosamine-6-phosphate [7] = variants of: B1; test: self-cleavage kobs at 10000 uM GlcN6P; higher = faster cleavage; RNA array
How it was run: as §1

| Variant | kcat (glucosamine-6-phosphate [1]) [s⁻¹] | KM (glucosamine-6-phosphate [2]) [µM] | self-cleavage kobs at 40 uM GlcN6P (glucosamine-6-phosphate [3]) [s⁻¹] | self-cleavage kobs at 160 uM GlcN6P (glucosamine-6-phosphate [4]) [s⁻¹] | self-cleavage kobs at 640 uM GlcN6P (glucosamine-6-phosphate [5]) [s⁻¹] | self-cleavage kobs at 2500 uM GlcN6P (glucosamine-6-phosphate [6]) [s⁻¹] | self-cleavage kobs at 10000 uM GlcN6P (glucosamine-6-phosphate [7]) [s⁻¹] |
| --- | --- | --- | --- | --- | --- | --- | --- |
| A20C | 0.0144 ± 0.0036 | 327 ± 110 | 0.00153 ± 0.00021 | 0.00529 ± 0.0011 | 0.00992 ± 0.003 | 0.0111 ± 0.0039 |  |
| G38U A64U | < 1e-05 |  | < 1e-05 |  | < 1e-05 | < 1e-05 |  |
| C11A U69C | 6.61e-05 ± 1e-05 |  |  |  | 7.71e-05 ± 3.5e-05 | 7.67e-05 ± 1.5e-05 | 4.97e-05 ± 1.6e-05 |
| U31A G44U | 0.00017 ± 9.6e-06 | 3960 ± 530 |  |  |  | 6.38e-05 ± 1.6e-05 | 0.000122 ± 1.8e-05 |
| A33U A42G | 0.000108 ± 7.3e-06 | 2000 ± 350 |  |  |  | 6.02e-05 ± 1.3e-05 | 8.89e-05 ± 3e-05 |
| U55G G59C | 1.2e-05 ± 2.5e-06 |  |  |  |  |  |  |
| C50U C61A C68U | 2.59e-05 ± 6.9e-06 |  |  |  |  |  |  |
| A14G C16U G43A C67G | 0.00284 ± 0.00076 | 2840 ± 1100 | 4.98e-05 ± 2.2e-05 | 0.000207 ± 7.1e-05 | 0.000459 ± 8.8e-05 | 0.00221 ± 0.00072 | 0.00217 ± 0.00045 |
| A15U A64G | 0.00706 ± 0.00091 | 1990 ± 370 | 0.000142 ± 2.5e-05 | 0.00053 ± 0.0001 | 0.00182 ± 0.00029 | 0.00336 ± 0.00058 | 0.0066 ± 0.001 |
| A53U C68G | 7.87e-05 ± 9.6e-06 |  |  | 8.2e-05 ± 1.4e-05 | 6.63e-05 ± 1.1e-05 | 7.65e-05 ± 1.4e-05 | 7.67e-05 ± 7.9e-06 |
| C11A G60A | < 1e-05 |  |  |  |  |  |  |
| A15U U56G | 0.00786 ± 0.0027 | 3290 ± 1500 | 0.000149 ± 2.5e-05 | 0.000265 ± 5e-05 | 0.00143 ± 0.00018 | 0.00363 ± 0.00053 | 0.00565 ± 0.00088 |
| A36C A52G | < 1e-05 |  |  |  |  |  |  |
| A42G U54G | 0.0467 ± 0.012 | 2110 ± 650 | 0.00111 ± 0.00022 | 0.00287 ± 0.00056 | 0.0108 ± 0.0031 | 0.0229 ± 0.0093 | 0.0409 ± 0.011 |
| G29A C68A | 1.61e-05 ± 4.9e-06 |  | < 1e-05 |  |  |  |  |
| A6U G29A | 3.18e-05 ± 3.2e-06 |  | < 1e-05 |  |  | 2.95e-05 ± 1.3e-05 | 2.9e-05 ± 9.8e-06 |
| C11U A14G | 0.0102 ± 0.0018 | 2230 ± 580 | 0.000229 ± 4e-05 | 0.000583 ± 0.00013 | 0.00207 ± 0.0003 | 0.00674 ± 0.0012 | 0.00811 ± 0.001 |
| U30G G66C | 0.000132 ± 1.5e-05 | 1620 ± 600 |  |  |  | 9.1e-05 ± 1.7e-05 | 0.00011 ± 1.6e-05 |
| A39U G59A | 2.27e-05 ± 2.6e-06 |  |  |  |  |  |  |

| Variant | kcat (glucosamine-6-phosphate [1]) [s⁻¹] | KM (glucosamine-6-phosphate [2]) [µM] | self-cleavage kobs at 40 uM GlcN6P (glucosamine-6-phosphate [3]) [s⁻¹] | self-cleavage kobs at 160 uM GlcN6P (glucosamine-6-phosphate [4]) [s⁻¹] | self-cleavage kobs at 640 uM GlcN6P (glucosamine-6-phosphate [5]) [s⁻¹] | self-cleavage kobs at 2500 uM GlcN6P (glucosamine-6-phosphate [6]) [s⁻¹] | self-cleavage kobs at 10000 uM GlcN6P (glucosamine-6-phosphate [7]) [s⁻¹] |
| --- | --- | --- | --- | --- | --- | --- | --- |
| G59U C61A C67A | 1.63e-05 ± 4.2e-06 |  |  |  |  |  |  |
| A39U C58A | 0.000543 ± 0.00013 |  |  |  |  | 8.13e-05 ± 1.4e-05 | 0.000214 ± 2.7e-05 |
| A39U C58U | 1.89e-05 ± 1e-06 |  |  |  |  |  |  |
| U57G C58G C68U | 4.52e-05 ± 1.6e-05 |  |  |  | 7.15e-05 ± 2.1e-05 |  |  |
| A33U U49A C58U | < 1e-05 |  | < 1e-05 |  |  |  |  |
| U45A G59A | 0.00059 ± 0.00018 |  | < 1e-05 |  | 2.71e-05 ± 1e-05 | 6.8e-05 ± 3.3e-05 | 0.000234 ± 3.9e-05 |
| C11G A12G | < 1e-05 | 16.2 ± 6.9 | < 1e-05 | < 1e-05 |  |  | < 1e-05 |
| U55C G59A | 0.000118 ± 2.1e-05 | 4900 ± 1900 |  |  |  | 3.74e-05 ± 1.1e-05 | 7.97e-05 ± 1.4e-05 |
| C50U A64C | < 1e-05 |  |  | < 1e-05 | < 1e-05 |  | < 1e-05 |
| A6U U55C | 0.000167 ± 2.1e-06 | 1250 ± 45 |  |  | 5.6e-05 ± 1.6e-05 | 0.000112 ± 1.5e-05 | 0.000148 ± 2.5e-05 |
| A14U A52U | 0.000167 ± 2.7e-06 | 2930 ± 110 |  |  | 3.02e-05 ± 7.3e-06 | 7.62e-05 ± 7.8e-06 | 0.000129 ± 1e-05 |
| A12G A14G | 0.00308 ± 0.00041 | 4770 ± 950 | 2.51e-05 ± 6.2e-06 | 8.41e-05 ± 1.3e-05 | 0.000405 ± 4.5e-05 | 0.00121 ± 0.00015 | 0.00203 ± 0.00016 |
| U49G A52U | 1.85e-05 ± 1.5e-06 | 2320 ± 910 |  | < 1e-05 |  |  |  |
| C58A | 0.000863 ± 0.00012 | 4110 ± 820 | 1.13e-05 ± 2.2e-06 | 3.84e-05 ± 2.2e-06 | 0.000118 ± 2.7e-06 | 0.000305 ± 7.2e-06 | 0.000665 ± 2.3e-05 |
| A12U G37A G40C | 0.00099 ± 0.00024 | 4220 ± 1400 |  | 2.74e-05 ± 1.2e-05 | 0.000134 ± 1.7e-05 | 0.000386 ± 9.8e-05 | 0.000686 ± 0.00012 |
| G29C C58U | 5.79e-05 ± 8.3e-06 |  | < 1e-05 |  |  | 2.68e-05 ± 9.9e-06 | 4.86e-05 ± 8e-06 |
| G29C C68G | 2.94e-05 ± 9e-06 |  |  |  | 5.49e-05 ± 1.9e-05 | 3.19e-05 ± 1.5e-05 |  |
| A36C U54G | < 1e-05 |  |  |  |  | < 1e-05 | < 1e-05 |
